Each block holds one binder with its values, some of them ahead of it. Groups on a side chain read outwards from the residue. No end group written: not given here.
Tests used:
[1] = molecular target: T1, recombinant human NME7-AB (human, UniProt Q9Y5B8 92-376); experiment: ELISA, PSMGFR-Cys coupled BSA on the plate, NME7 detected with B-9
T1 construct: Expressed in E. coli, lacks the DM10 domain, monomer; also called NME7 monomer
T1 sequence: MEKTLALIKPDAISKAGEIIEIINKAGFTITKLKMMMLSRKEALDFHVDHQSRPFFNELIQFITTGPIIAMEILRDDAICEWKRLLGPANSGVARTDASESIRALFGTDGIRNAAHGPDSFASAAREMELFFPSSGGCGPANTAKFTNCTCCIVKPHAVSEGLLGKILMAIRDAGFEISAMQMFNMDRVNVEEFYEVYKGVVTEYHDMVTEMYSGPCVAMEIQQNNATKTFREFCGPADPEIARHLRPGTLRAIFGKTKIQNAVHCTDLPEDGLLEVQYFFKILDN
Protocol: (§1) The PSMGFR peptide bearing a C-terminal Cysteine (PSMGFR-Cys) was covalently coupled to BSA using Imject Maleimide activated BSA kit (Thermo Fisher). PSMGFR-Cys coupled BSA was diluted to 10 ug/mL in 0.1M carbonate/bicarbonate buffer pH 9.6 and 50 uL was added to each well of a 96 well plate. After overnight incubation at 4° C., the plate was washed twice with PBS-T and a 3% BSA solution was added to block remaining binding site on the well. After 1 h at RT the plate was washed twice with PBS-T and NME7, diluted in PBS-T+1% BSA, was added at different concentrations. After 1 h at RT the plate was washed 3× with PBS-T and anti-NM23-H7 (B-9, Santa Cruz Biotechnology), diluted in PBS-T+1% BSA, was added at 1/500 dilution. After 1 h at RT the plate was washed 3× with PBS-T and goat anti mouse-HRP, diluted in PBS-T+1% BSA, was added at 1/3333 dilution. After 1 h at RT the plate was washed 3× with PBS-T and binding of NME7 was measured at 415 nm using ABTS solution (Pierce).

[2] = molecular target: T1, recombinant human NME7-AB; experiment: sandwich ELISA, PSMGFR-His bound to NME7 held by plate-bound PSMGFR, anti-Histag-HRP
Protocol: as §1, with “After 1 h at RT the plate was washed 3× with PBS-T and goat anti mouse-HRP, diluted in PBS-T+1% BSA, was added at 1/3333 dilution.” left out, “(Pierce). […]” for “(Pierce).”
(§2) After 1 h at RT the plate was washed 3× with PBS-T and HisTagged PSMGFR peptide (PSMGFR-His) or biotinylated PSMGFR peptide (PSMGFR-biotin), diluted in PBS-T+1% BSA, was added at different concentration. […] After 1 h at RT the plate was washed 3× with PBS-T and binding of PSMGFR peptide to NME7 already bound to another PSMGFR peptide (which could not signal by anti-His antibody or by streptavidin) coupled BSA was measured at 415 nm using a ABTS solution (Pierce).

[3] = molecular target: T1, recombinant human NME7-AB; experiment: sandwich ELISA
Protocol: as §1, with “After 1 h at RT the plate was washed 3× with PBS-T and goat anti mouse-HRP, diluted in PBS-T+1% BSA, was added at 1/3333 dilution.” left out, “(Pierce). […]” for “(Pierce).”
as §2

[4] = molecular target: T1, recombinant human NME7-AB; experiment: sandwich ELISA, PSMGFR-biotin bound to NME7 held by plate-bound PSMGFR, streptavidin-HRP
Protocol: as §1, with “After 1 h at RT the plate was washed 3× with PBS-T and goat anti mouse-HRP, diluted in PBS-T+1% BSA, was added at 1/3333 dilution.” left out, “(Pierce). […]” for “(Pierce).”
as §2

binding result [1]: binds
B1: PSMGFR peptide bearing a C-terminal Cysteine, coupled to BSA (peptide)
peptide: GTINVHDVETQFNQYKTEAASRYNLTISDVSVSDVPFPFSAQSGAC([maleimide-BSA])
notes: also called PSMGFR-Cys; PSMGFR-Cys coupled BSA

binding result [2]: binds
B2: His-tagged PSMGFR peptide (peptide)
peptide: GTINVHDVETQFNQYKTEAASRYNLTISDVSVSDVPFPFSAQSGA
notes: also called PSMGFR-His; not shown: histidine tag

binding result [3]: binds
B3: MUC1* extracellular domain peptide (PSMGFR peptide) (peptide)
peptide: GTINVHDVETQFNQYKTEAASRYNLTISDVSVSDVPFPFSAQSGA
notes: also called synthetic MUC1* peptide; surface immobilized MUC1* peptide

binding result [4]: binds
B4: biotinylated PSMGFR peptide (peptide)
peptide: GTINVHDVETQFNQYKTEAASRYNLTISDVSVSDVPFPFSAQSGA
modifications: also: biotinylated (position not given here)
notes: also called PSMGFR-biotin
